Data as given in patent publication US20050256058.

Tests used:
[1] = test system: T1, Cbz-Ala-Ala-AAsn-CH═CH-CON(Bzl)2
T1 sequence: AAN

[2] = test system: T2, Cbz-Ala-Ala-AAsn-CH═CH-CO-indoline
T2 sequence: AAN

[3] = test system: T3, Cbz-Ala-Ala-AAsn-CH═CH-CONHCH2CH2Ph
T3 sequence: AAN

[4] = test system: T4, Cbz-Ala-Ala-AAsn-CH═CH-CON(CH3)Bzl
T4 sequence: AAN

[5] = test system: T5, Cbz-Ala-Ala-AAsn-CH═CH-COOEt
T5 sequence: AAN

[6] = test system: T6, PhPr-Leu-ALys-CH═CH-COOEt
T6 sequence: LK

[7] = test system: T7, PhPr-Leu-AOrn-CH═CH-COOEt
T7 sequence: LX

| Substance | kobs/[I] [1] | kobs/[I] [2] | kobs/[I] [3] | kobs/[I] [4] | kobs/[I] [5] [M⁻¹ s⁻¹] | kobs/[I] [6] [M⁻¹ s⁻¹] | kobs/[I] [7] |
| --- | --- | --- | --- | --- | --- | --- | --- |
| Gingipain K | 2 M⁻¹ s⁻¹ | 1 M⁻¹ s⁻¹ | NI | 1 M⁻¹ s⁻¹ | 6 | – | – |
| Cathepsin B | NI | NI | NI | NI | 1 | 9 | 3 M⁻¹ s⁻¹ |
| Trypsin | – | – | – | – | – | 17 | NI |
